The values that follow are results of earlier work, collected in paper PMC6811625.

The data set deals with Im7 (Escherichia coli) (UniProt Q03708).
Chain of Im7 (Escherichia coli) (Q03708 whole entry): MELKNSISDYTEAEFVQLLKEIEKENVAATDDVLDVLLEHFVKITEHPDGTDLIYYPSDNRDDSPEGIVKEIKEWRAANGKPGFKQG

Chain of Spy (P77754 24-161): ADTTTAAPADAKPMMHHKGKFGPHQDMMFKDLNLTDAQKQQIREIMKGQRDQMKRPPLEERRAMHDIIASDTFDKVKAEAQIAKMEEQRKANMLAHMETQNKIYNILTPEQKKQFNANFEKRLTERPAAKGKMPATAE

Spy (from UniProt P77754): the dissociation constant (Kd) was 30 µM.

In general, Kd refers to the concentration at which binding is half-saturated.
